The values below come from patent US20250154236A1, “PREVENTION AND TREATMENT OF HEADACHES” (GlaxoSmithKline Intellectual Property (No. 3) Limited, priority 2022, published 2025).

Where two headings read alike, the source gives them in different places.

The test system of assay [1] is adult rat trigeminal ganglia neurons. Nature of the assay: CGRP release from cultured rat trigeminal ganglia neurons (ELISA). It counts as cell-based. The protocol: (§1) TG Cultures were prepared from 8-10-week Sprague-Dawley rats. Following cervical dislocation and cardiac cessation, trigeminal ganglia (TG) were dissociated and collected in ice cold HBSS buffer. TGs were digested in 20 U/ml papain for 20 min followed by another 20-min enzymatic digestion in 2% Collagenase Type 4 and Dispase II in 37° C. water bath. Digested TG ganglia were suspended in Leibovitz's L15 medium containing 10% Fetal Bovine Serum, 1% penicillin/streptomycin, 18.5 mM NaHCO3, 38 mM glucose. Cell suspensions were filtered in a 70 μm then a 40 μm cell strainer and were layered onto Leibovitz's L15 medium containing 4% BSA cushion followed by slow speed centrifuge at 100 g, 10 min. Cell pellets were suspended with DMEM medium containing 10% Fetal Bovine Serum and 1% penicillin/streptomycin. Cells were plated onto 96-well plates and cultured for 24 hours at 37° C., 5% CO2. Recombinant rat artemin protein and vehicle control buffer were added into appropriate wells for 24-hour pre-incubation as needed. For experiments testing the effect of an anti-artemin antibody or RET inhibitor, these agents were added to the TG culture simultaneously with artemin for 24 h for CGRP and SP assay or 48 h for PACAP assay. After 24 h or 48 h incubation, cell culture medium was removed and assay buffer containing TRPV1 agonist capsaicin (CAP) or TRPA1 agonist allyl isothiocyanate (AITC) were added into wells and incubated at 37° C., 10 min to trigger neuropeptide release. At the end of stimulation, the supernatant was collected and CGRP and SP content were measured using ELISA assay kits (Bertin Bioreagent). For PACAP assay, cells were cultured and pre-incubated with artemin for 48 hours prior to agonist stimulation to trigger PACAP release. PACAP content in supernatant was measured using an in-house developed ELISA assay.
(In general: In an ELISA, binding on a coated surface is turned into a signal by an enzyme label.)

The test system is the same in assay [2]. The description is as above. The assay is classed as cell-based. The conditions noted are these: Neuron, 0.5 h.
Assay [3] concerns rat TG neurons. The assay is described as follows: Substance P release from cultured rat trigeminal ganglia neurons (ELISA). To be noted: artemin pre-incubation. The assay is classed as cell-based. The protocol:
as §1, with “For experiments testing the effect of an anti-artemin antibody or RET inhibitor, these agents were added to the TG culture simultaneously with artemin for 24 h for CGRP and SP assay or 48 h for PACAP assay. After 24 h or 48 h incubation, cell culture medium was removed and assay buffer containing TRPV1 agonist capsaicin (CAP) or TRPA1 agonist allyl isothiocyanate (AITC) were added into wells and incubated at 37° C., 10 min to trigger neuropeptide release.” left out, “For PACAP assay, cells were cultured and pre-incubated with artemin for 48 hours prior to agonist stimulation to trigger PACAP release.” left out

For assay [4], the system named is rat TG neurons. The assay is described as follows: PACAP release from cultured rat trigeminal ganglia neurons (in-house ELISA). It counts as cell-based. To be noted: artemin treatment for 48 hours. The protocol:
as §1, with “For experiments testing the effect of an anti-artemin antibody or RET inhibitor, these agents were added to the TG culture simultaneously with artemin for 24 h for CGRP and SP assay or 48 h for PACAP assay. After 24 h or 48 h incubation, cell culture medium was removed and assay buffer containing TRPV1 agonist capsaicin (CAP) or TRPA1 agonist allyl isothiocyanate (AITC) were added into wells and incubated at 37° C., 10 min to trigger neuropeptide release.” left out, “For PACAP assay, cells were cultured and pre-incubated with artemin for 48 hours prior to agonist stimulation to trigger PACAP release.” left out

The test system of assay [5] is rat (preclinical migraine model). Nature of the assay: Artemin dural infusion study, periorbital von Frey sensitivity. The assay is classed as in vivo. To be noted: local dural infusion daily for five consecutive days, 0.018, 0.18 and 1.8 μg; versus vehicle, first two weeks. Here is the method:
Briefly, three different doses of rat artemin protein, inflammatory soup cocktail and vehicle buffer were administered daily via a stainless-steel cannula (22GA, Plastics One) embedded onto dura for 5 consecutive days to produce persistent facial hypersensitivity. Sensory testing occurred during the day using von Frey filaments with reproducible calibrated buckling forces varying from 0.4-10 g utilizing the simplified Chaplan up-and-down method. Allodynia was tested by perpendicularly touching the periorbital region causing slight buckling of the filament for approximately 5 seconds. The periorbital withdrawal threshold (g) was calculated based on the response pattern and the force of the final filament. The periorbital threshold data was recorded on the side of artemin, Inflammatory Soup Cocktail, or vehicle infusion only.

On to `C=CCN=C=S` [AITC, allyl isothiocyanate, reference compound], for which the EC50 in assay [1] (Rattus norvegicus, Neuron, 24 h, read-out: EC50 of AITC for CGRP release) is 6940 nM; in assay [1] (Rattus norvegicus, Neuron, read-out: EC50 of AITC for CGRP release) it was 17800 nM; in assay [2] (Rattus norvegicus, read-out: EC50 of AITC for CGRP release) it was 6600 nM.

As for `COc1cc(CNC(=O)CCCC/C=C/C(C)C)ccc1O` [CAP, capsaicin, reference compound], the EC50 in assay [1] (Neuron, CAP+ARTN (24 h), 10 ng/ml rat artemin, read-out: EC50 of CAP for CGRP release) amounted to 20.2 nM; in assay [1] (Rattus norvegicus, Neuron, CAP alone, no artemin, read-out: EC50 of CAP for CGRP release) it was 21.6 nM; in assay [2] (CAP+ARTN (30 min), 10 ng/ml rat artemin, read-out: EC50 of CAP for CGRP release), 17.9 nM.

B1: artemin: Recombinant rat artemin protein, member of GDNF ligand family (protein)
chain: AGTRSSRARATDARGCRLRSQLVPVSALGLGHSSDELIRFRFCSGSCRRARSPHDLSLASLLDAGALRSPPGSRPISQPCCRPTRYEAVSFMDVNSTWRTVDHLSATACGCLG
Regarding B1, the “EC50 for artemin-potentiation of CGRP release” value in assay [1] (AITC stimulation, 24 hours of treatment) was found to be 0.092 ng/mL; in assay [1] (CAP stimulation, 24 hours of treatment), 0.028 ng/mL. In assay [1] (AITC stimulation, 24 hours of treatment, read-out: EC50 for artemin-potentiation of CGRP release), the EC50 turned out to be 0.0038 nM. In assay [1] (CAP and AITC fixed at ~EC50, artemin range 0.001 to 100 ng/ml), the “artemin concentration reaching maximal effect on stimulated CGRP release” value worked out at 1 ng/mL. For the same molecule, the “effect on CAP- and AITC-stimulated Substance P (SP) release” value in the assay on rat TG neurons [3] was “dose-dependently increased”. Moreover, the “effect on CAP- and AITC-stimulated PACAP release” value in the assay on rat TG neurons [4] is “potentiated”. Also, the “periorbital sensitivity to mechanical stimulation” value in assay [5] is recorded as “significantly increased”.

For orientation: EC50 means the concentration needed to bring the measured effect to its halfway point.
